Assay results: patent US12018084B2, “Anti-CXCR2 antibodies and uses thereof” (Cephalon LLC, priority 2018, dated 2024)
Numbering of substitutions follows the chain as printed.

B1: BKO-4A8: parental anti-CXCR2 antibody, VH SEQ ID NO: 17, VL SEQ ID NO: 18 (antibody, V domains shown)
VH: EVQLLESGGGLVQPGGSLRLSCAASGFTFSSSTMSWVRQAPGKGLEWVSAISGRGRNTYYADSVKGRFTISRDNSRNTLYLQMNSLRAEDTAVYYCAIQMGYWGQGILVTVSS
VL: QSALTQPPSASGSPGQSVTISCIGTSSDVGGYNYVSWYQQHPDKAPKLMIYEVNKRPSGVPDRFSGSKSGNTASLTVSGLQAEDEADYYCSSYAGNNNFGVFGGGTKLTVL
modifications: BKO_4A8_VH; BKO_4A8_VL
B2: 101c: VH SEQ ID NO: 108, VL SEQ ID NO: 110; renamed BKO-4A8-101c (antibody, V domains shown)
VH: B1 VH with M34Q, A40P, N57S, R76K, M100A
VL: B1 VL with D43G, N54S, N96S
modifications: 4A8 VH Variant 101 M34Q_A40P_N56S_R75K_M96A; 4A8 VL variant c D41G_N52S_N94S
notes: renamed BKO-4A8-101c

Experiments:
Murine CXCR2 = target: T1, Murine CXCR2 (Mus musculus, UniProt P35343); assay: cELISA of hybridoma supernatants on cells transfected with murine CXCR2; type: binding; conditions: hybridoma supernatant; fluorescence units relative to positive control (100%)
T1 construct: expressed in transfected cells
T1 sequence (P35343 1-359): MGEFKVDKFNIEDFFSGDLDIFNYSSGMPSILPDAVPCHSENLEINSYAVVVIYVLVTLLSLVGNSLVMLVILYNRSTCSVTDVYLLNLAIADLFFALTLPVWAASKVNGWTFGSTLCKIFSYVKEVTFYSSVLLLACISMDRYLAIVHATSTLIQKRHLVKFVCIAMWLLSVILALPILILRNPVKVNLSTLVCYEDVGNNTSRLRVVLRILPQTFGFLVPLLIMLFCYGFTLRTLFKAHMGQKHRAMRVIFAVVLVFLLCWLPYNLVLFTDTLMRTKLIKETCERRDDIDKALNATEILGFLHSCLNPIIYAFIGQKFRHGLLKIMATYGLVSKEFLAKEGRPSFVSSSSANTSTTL

[1] = system: native cynomolgus CXCR2 expressed by cynomolgus neutrophils; assay: Flow cytometry binding to cynomolgus blood neutrophils; set-up: species or system cynomolgus monkey; conditions: FIG. 2, MFI
native cynomolgus CXCR2 expressed by cynomolgus neutrophils, sequence (as listed by the source): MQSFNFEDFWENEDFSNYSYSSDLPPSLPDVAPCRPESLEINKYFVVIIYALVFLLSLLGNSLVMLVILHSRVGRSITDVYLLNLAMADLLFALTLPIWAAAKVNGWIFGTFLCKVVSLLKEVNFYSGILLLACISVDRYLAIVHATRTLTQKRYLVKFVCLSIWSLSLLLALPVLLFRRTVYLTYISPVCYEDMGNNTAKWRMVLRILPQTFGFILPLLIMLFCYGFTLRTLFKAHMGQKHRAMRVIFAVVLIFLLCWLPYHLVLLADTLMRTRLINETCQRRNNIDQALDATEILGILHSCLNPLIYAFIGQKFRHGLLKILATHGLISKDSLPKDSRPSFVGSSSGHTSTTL
Method: Whole human buffy coat, PBMC enriched fractions prepared from human peripheral blood buffy coat or cynomolgus monkey whole blood was used for analysis of antibody binding activity by flow cytometry. Briefly, blood was untreated or diluted 1:1 in sterile filtered room temperature phosphate-buffered saline (PBS). 30 mL samples were layered over 15 mL Lymphoprep™ (Stem Cell Technologies, cat #07851). Peripheral blood mononuclear cells (PBMC) were enriched by room temperature centrifugation at 700 g for 30 minutes with no braking. The PBMC layer was isolated and cells washed in PBS containing 2 mM EDTA with low speed centrifugation at 200 g, to remove platelet contamination. Whole blood or PBMC enriched cell fractions were resuspended in red blood cell lysing solution (BioLegend, 420301). Viable cell counts were determined and cells resuspended at 1×10^7 cells per mL in FACS buffer (1×PBS+0.5% (w/v) BSA+2 mM EDTA pH 7.2).
Flow cytometry binding assays using whole blood or PBMC enriched preparations: Binding assays to detect CXCR2 on blood neutrophil populations using test antibodies were performed essentially as described for assays using transiently transfected Expi293F™ cells. Binding of antibodies to human CXCR2 on the surface of the neutrophils was measured using anti-CXCR2 antibody directly conjugated to the fluorophore allophycocyanin (APC). Matched isotype control antibodies were included for comparison. Cells were incubated with lineage specific antibodies and 2 μg/ml of APC conjugated anti-CXCR2 antibody or isotype control prepared in ice cold 3% BSA/PBS for a minimum of 30 minutes at 4° C. The commercial anti-CXCR2 antibody (clone 48331 (R&D Systems FAB331A)) was used as a positive control. […] The level of fluorescence on the cell surface was measured by flow cytometry. Using this method, test anti-CXCR2 antibodies were detected binding neutrophils from both human and cynomolgus monkey.

Human CXCR2 = target: T2, Human CXCR2 (Homo sapiens, UniProt P25025); assay: cELISA of hybridoma supernatants on cells transfected with human CXCR2; type: binding; set-up: host or cells: Expi293F cells, vector pTT5; conditions: hybridoma supernatant; fluorescence units relative to positive control (100%)
T2 sequence (P25025 1-360): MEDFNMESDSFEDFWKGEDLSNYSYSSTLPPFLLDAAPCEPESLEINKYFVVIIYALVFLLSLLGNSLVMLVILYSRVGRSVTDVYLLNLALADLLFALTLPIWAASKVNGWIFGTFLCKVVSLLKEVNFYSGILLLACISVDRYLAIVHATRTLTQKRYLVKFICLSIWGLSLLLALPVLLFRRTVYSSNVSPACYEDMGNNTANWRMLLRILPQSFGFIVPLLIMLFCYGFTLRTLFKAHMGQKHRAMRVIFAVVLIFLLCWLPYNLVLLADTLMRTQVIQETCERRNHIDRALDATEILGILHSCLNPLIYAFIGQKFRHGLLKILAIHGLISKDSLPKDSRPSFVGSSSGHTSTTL
Method: To generate hybridomas which produced monoclonal antibodies to human CXCR2, splenocytes and/or lymph node cells from animals with the highest anti-CXCR2 titres were isolated and fused to mouse myeloma cells (ATCC, CRL-1580). Cells were plated at approximately 1×10^5 cells/mL in flat bottom microtiter plates, followed by a two week incubation in selective medium (10% FCS and 1×HAT (Sigma)). Hybridomas were expanded by serial passage through four media changes in 96-well plates (96-well stages 1 to 4), then, where required, expanded into T25 and T75 flasks. […] Bound antibodies were detected using a goat anti-rat IgG-HRP (Southern Biotech, #3030-05) secondary antibody.
A panel of hybridomas was generated using lymph nodes and spleen cells from the transgenic rats engineered to express human variable region sequences. A cellular ELISA (cELISA) was used to detect human CXCR2 binding activity in supernatants taken during the expansion process for the hybridomas (Table 5). Hybridomas that retained expression of antibodies that bound CXCR2 after several passages were selected for DNA sequencing.

cynomolgus monkeys = assay: LPS induced acute lung inflammation in cynomolgus monkey; type: in vivo
Method: Biologics naïve (i.e. not previously administered exogenous biologics) male cynomolgus monkeys were randomized into groups receiving vehicle or the anti-CXCR2 antibody BKO-4A8-101c administered by intravenous administration at a dose of 1 mg/kg on days 0, 14, and 28. One hour post-treatment of test antibodies on day 0, animals were exposed to aerosolized bacterial lipopolysaccharide (LPS) by inhalation of 20 μg/L for 5 mins (total dose 20 μg/kg). This is a well-established model of acute lung inflammation. Inflammatory responses were characterized at 24 hours after LPS exposure by total and differential cell counts of bronchoalveolar lavage fluid of the left lung and compared to matched counts from naïve animals at pre-treatment day 14. Blood was collected at various time points for differential cell count and serum collected for pharmacokinetic analysis.

[2] = 1 mg/kg intravenous days 0, 14, 28

Molecule | Murine CXCR2 % Positive (Murine CXCR2) | binding to native cynomolgus CXCR2 on cynomolgus PBMCs / neutrophils [1] | Human CXCR2 % Positive (Human CXCR2) | LPS-induced pulmonary neutrophilia (cynomolgus monkeys; 1 mg/kg intravenous 1 hour before LPS, BAL 24 hours after LPS) | blood neutrophil counts following repeat dosing (cynomolgus monkeys; [2]) | tolerability, body weight (cynomolgus monkeys; [2])
B1 | 5% | high binding activity | 110% | – | – | –
B2 | – | – | – | markedly inhibited | did not induce measurable changes | well tolerated with no loss in body weight
